Patent publication US20250243287A1 (SHENGHE CHINA BIOPHARMACEUTICAL, published 2025)

Biological target: T1, human CCR8 (chemokine (C-C motif) receptor 8) (human, UniProt P51685 1-355)
T1 construct: whole, on cells; also called CCR8-CHO-K1 cells; CHOK1-CCR8 cells
Test: flow cytometry on CHOK1-CCR8 cells, steps of Example 6

T1 sequence (P51685 whole entry): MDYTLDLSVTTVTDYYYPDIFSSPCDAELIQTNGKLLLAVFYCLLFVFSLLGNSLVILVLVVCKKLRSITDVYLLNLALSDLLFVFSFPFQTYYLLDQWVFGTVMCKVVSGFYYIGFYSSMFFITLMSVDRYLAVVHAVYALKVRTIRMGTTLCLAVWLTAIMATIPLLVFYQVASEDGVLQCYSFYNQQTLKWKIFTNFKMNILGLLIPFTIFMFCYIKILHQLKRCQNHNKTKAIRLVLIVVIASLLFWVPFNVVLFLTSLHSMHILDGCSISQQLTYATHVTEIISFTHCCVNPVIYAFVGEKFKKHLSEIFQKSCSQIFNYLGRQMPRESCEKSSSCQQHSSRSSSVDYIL

B1: Hu-2-Z5 (antibody, V domains shown)
VH: QVQLVQSGAEVKKPGASVKVSCKASGYTFTDYEMHWVRQAPGQGLEWMGAIDPETGATAYNQKFKGRVTLTADTSISTAYMELSRLRSDDTVVYYCASRAGGRGRFAYWGQGTLVTVSS
VL: EVVMTQSPGTLSLSPGERATLSCRSSQSLVHSSGNTYLHWYQQKPGQSPRLLIYKVSNRFSGIPDRFSGSGSGTDFTLTISRLEPEDFAVYFCSQTTHVPYTFGGGTKLELK
notes: Humanized from CH-2; also called humanized antibody Hu-2-Z5
  binding result: binds

B2: Hu-2-Z7 (antibody, V domains shown)
VH: QVQLVQSGAEVKKPGASVKVSCKASGYTFTDYEMHWVRQAPGQGLEWMGAIDPETGATAYNQKFKGRVTLTADTSISTAYMELSRLRSDDTVVYYCKSRAGGRGRFAYWGQGTLVTVSS
VL: EIVLTQSPGTLSLSPGERATLSCRSSQSLVHSSGNTYLHWYQQKPGQAPRLLIYKVSNRFSGIPDRFSGSGSGTDFTLTISRLEPEDFAVYYCSQTTHVPYTFGGGTKLELK
notes: Humanized from CH-2; also called humanized antibody Hu-2-Z7
  binding result: binds

B3: Hu-2-Z12 (antibody, V domains shown)
VH: QVQLVQSGAEVKKPGASVKVSCKASGYTFTDYEMHWVRQAPVRGLEWMGAIDPETGATAYNQKFKGRVTLTADTSISTAYMELSRLRSDDTVVYYCKSRAGGRGRFAYWGQGTLVTVSS
VL: DVVMTQSPLTLSLSPGERATLSCRSSQSLVHSSGNTYLHWYQQKPGQSPKLLIYKVSNRFSGIPDRFSGSGSGTDFTLTISRLEPEDFAVYFCSQTTHVPYTFGGGTKLELK
notes: Humanized from CH-2; also called humanized antibody Hu-2-Z12
  binding result: binds

B4: Hu-2-Z8 (antibody, V domains shown)
VH: QVQLVQSGAEVKKPGASVKVSCKASGYTFTDYEMHWVRQAPGQGLEWMGAIDPETGATAYNQKFKGRVTLTADTSISTAYMELSRLRSDDTVVYYCKSRAGGRGRFAYWGQGTLVTVSS
VL: EVVMTQSPGTLSLSPGERATLSCRSSQSLVHSSGNTYLHWYQQKPGQSPRLLIYKVSNRFSGIPDRFSGSGSGTDFTLTISRLEPEDFAVYFCSQTTHVPYTFGGGTKLELK
notes: Humanized from CH-2; also called humanized antibody Hu-2-Z8
  binding result: binds

B5: Hu-2-Z10 (antibody, V domains shown)
VH: QVQLVQSGAEVKKPGASVKVSCKASGYTFTDYEMHWVRQAPVRGLEWMGAIDPETGATAYNQKFKGRVTLTADTSISTAYMELSRLRSDDTVVYYCKSRAGGRGRFAYWGQGTLVTVSS
VL: EIVLTQSPGTLSLSPGERATLSCRSSQSLVHSSGNTYLHWYQQKPGQAPRLLIYKVSNRFSGIPDRFSGSGSGTDFTLTISRLEPEDFAVYYCSQTTHVPYTFGGGTKLELK
notes: Humanized from CH-2; also called humanized antibody Hu-2-Z10
  binding result: binds

B6: Hu-2-Z6 (antibody, V domains shown)
VH: QVQLVQSGAEVKKPGASVKVSCKASGYTFTDYEMHWVRQAPGQGLEWMGAIDPETGATAYNQKFKGRVTLTADTSISTAYMELSRLRSDDTVVYYCASRAGGRGRFAYWGQGTLVTVSS
VL: DVVMTQSPLTLSLSPGERATLSCRSSQSLVHSSGNTYLHWYQQKPGQSPKLLIYKVSNRFSGIPDRFSGSGSGTDFTLTISRLEPEDFAVYFCSQTTHVPYTFGGGTKLELK
notes: Humanized from CH-2; also called humanized antibody Hu-2-Z6
  binding result: binds

B7: Hu-2-Z2 (antibody, V domains shown)
VH: QVQLVQSGAEVKKPGASVKVSCKASGYTFTDYEMHWVRQAPGQGLEWMGAIDPETGATAYNQKFKGRVTSTRDTSISTAYMELSRLRSDDTVVYYCARRAGGRGRFAYWGQGTLVTVSS
VL: EVVMTQSPGTLSLSPGERATLSCRSSQSLVHSSGNTYLHWYQQKPGQSPRLLIYKVSNRFSGIPDRFSGSGSGTDFTLTISRLEPEDFAVYFCSQTTHVPYTFGGGTKLELK
notes: Humanized from CH-2; also called humanized antibody Hu-2-Z2
  binding result: binds

B8: Hu-2-Z9 (antibody, V domains shown)
VH: QVQLVQSGAEVKKPGASVKVSCKASGYTFTDYEMHWVRQAPGQGLEWMGAIDPETGATAYNQKFKGRVTLTADTSISTAYMELSRLRSDDTVVYYCKSRAGGRGRFAYWGQGTLVTVSS
VL: DVVMTQSPLTLSLSPGERATLSCRSSQSLVHSSGNTYLHWYQQKPGQSPKLLIYKVSNRFSGIPDRFSGSGSGTDFTLTISRLEPEDFAVYFCSQTTHVPYTFGGGTKLELK
notes: Humanized from CH-2; also called humanized antibody Hu-2-Z9
  binding result: binds

B9: Hu-2-Z3 (antibody, V domains shown)
VH: QVQLVQSGAEVKKPGASVKVSCKASGYTFTDYEMHWVRQAPGQGLEWMGAIDPETGATAYNQKFKGRVTSTRDTSISTAYMELSRLRSDDTVVYYCARRAGGRGRFAYWGQGTLVTVSS
VL: DVVMTQSPLTLSLSPGERATLSCRSSQSLVHSSGNTYLHWYQQKPGQSPKLLIYKVSNRFSGIPDRFSGSGSGTDFTLTISRLEPEDFAVYFCSQTTHVPYTFGGGTKLELK
notes: Humanized from CH-2; also called humanized antibody Hu-2-Z3
  binding result: binds

B10: Hu-2-Z4 (antibody, V domains shown)
VH: QVQLVQSGAEVKKPGASVKVSCKASGYTFTDYEMHWVRQAPGQGLEWMGAIDPETGATAYNQKFKGRVTLTADTSISTAYMELSRLRSDDTVVYYCASRAGGRGRFAYWGQGTLVTVSS
VL: EIVLTQSPGTLSLSPGERATLSCRSSQSLVHSSGNTYLHWYQQKPGQAPRLLIYKVSNRFSGIPDRFSGSGSGTDFTLTISRLEPEDFAVYYCSQTTHVPYTFGGGTKLELK
notes: Humanized from CH-2; also called humanized antibody Hu-2-Z4
  binding result: binds

B11: Hu-2-Z11 (antibody, V domains shown)
VH: QVQLVQSGAEVKKPGASVKVSCKASGYTFTDYEMHWVRQAPVRGLEWMGAIDPETGATAYNQKFKGRVTLTADTSISTAYMELSRLRSDDTVVYYCKSRAGGRGRFAYWGQGTLVTVSS
VL: EVVMTQSPGTLSLSPGERATLSCRSSQSLVHSSGNTYLHWYQQKPGQSPRLLIYKVSNRFSGIPDRFSGSGSGTDFTLTISRLEPEDFAVYFCSQTTHVPYTFGGGTKLELK
notes: Humanized from CH-2; also called humanized antibody Hu-2-Z11
  binding result: binds

B12: Hu-2-Z1 (antibody, V domains shown)
VH: QVQLVQSGAEVKKPGASVKVSCKASGYTFTDYEMHWVRQAPGQGLEWMGAIDPETGATAYNQKFKGRVTSTRDTSISTAYMELSRLRSDDTVVYYCARRAGGRGRFAYWGQGTLVTVSS
VL: EIVLTQSPGTLSLSPGERATLSCRSSQSLVHSSGNTYLHWYQQKPGQAPRLLIYKVSNRFSGIPDRFSGSGSGTDFTLTISRLEPEDFAVYYCSQTTHVPYTFGGGTKLELK
notes: Humanized from CH-2; made by the aforementioned method (human IgG framework); also called humanized antibody Hu-2-Z1
  binding result: binds

B13: Hu-15-Z6 (antibody, V domains shown)
VH: EVQLVESGGGLVQPGGSLRLSCAASGFTFNTNAMNWVRQAPGKGLEWVGRIRTKSNNYATYYAESVRDRFTISRDDSKNSLYLQMNSLKTEDTAMYYCVRGGYGIRGDYTMDYWGQGTLVTVSS
VL: DIVMTQSPPTLSLSPGERATLSCRSSKSLLHSNGNTYLYWFQQKPGQSPQLLIYRMSNLASGIPDRFSGSGSGTDFTLTISRLEPEDFAVYYCMQHLEYPFTFGQGTKLEIK
notes: Humanized from CH-15; also called humanized antibody Hu-15-Z6
  binding result: binds

B14: Hu-15-Z3 (antibody, V domains shown)
VH: EVQLVESGGGLVQPGGSLRLSCAASGFTFNTNAMNWVRQAPGKGLEWVGRIRTKSNNYATYYAESVRDRFTISRDDSKNSLYLQMNSLKTEDTAVYYCARGGYGIRGDYTMDYWGQGTLVTVSS
VL: DIVMTQSPPTLSLSPGERATLSCRSSKSLLHSNGNTYLYWFQQKPGQSPQLLIYRMSNLASGIPDRFSGSGSGTDFTLTISRLEPEDFAVYYCMQHLEYPFTFGQGTKLEIK
notes: Humanized from CH-15; also called humanized antibody Hu-15-Z3
  binding result: binds

B15: Hu-15-Z8 (antibody, V domains shown)
VH: EVQLVESGGGLVQPGGSLRLSCAASGFTFNTNAMNWVRQAPGKGLEWVGRIRTKSNNYATYYAESVRDRFTISRDDSKNSLYLQMNSLKTEDTAMYYCVRGGYGIRGDYTMDYWGQGTLVTVSS
VL: DIVMTQSPPTLSLSPGERATLSCRSSKSLLHSNANTYLYWFQQKPGQSPQLLIYRMSNLASGIPDRFSGSGSGTDFTLTISRLEPEDFAVYYCMQHLEYPFTFGQGTKLEIK
notes: Humanized from CH-15; also called humanized antibody Hu-15-Z8
  binding result: binds

B16: Hu-15-Z7 (antibody, V domains shown)
VH: EVQLVESGGGLVQPGGSLRLSCAASGFTFNTNAMNWVRQAPGKGLEWVGRIRTKSNNYATYYAESVRDRFTISRDDSKNSLYLQMNSLKTEDTAMYYCVRGGYGIRGDYTMDYWGQGTLVTVSS
VL: DIVMTQSPPTLSLSPGERATLSCRSSKSLLHSQGNTYLYWFQQKPGQSPQLLIYRMSNLASGIPDRFSGSGSGTDFTLTISRLEPEDFAVYYCMQHLEYPFTFGQGTKLEIK
notes: Humanized from CH-15; also called humanized antibody Hu-15-Z7
  binding result: binds

B17: Hu-15-Z9 (antibody, V domains shown)
VH: EVQLVESGGGLVQPGGSLRLSCAASGFTFNTNAMNWVRQAPGKGLEWVGRIRTKSNNYATYYAESVRDRFTISRDDSKNSLYLQMNSLKTEDTAMYYCVRGGYGIRGEYTMDYWGQGTLVTVSS
VL: DIVMTQSPPTLSLSPGERATLSCRSSKSLLHSNGNTYLYWFQQKPGQSPQLLIYRMSNLASGIPDRFSGSGSGTDFTLTISRLEPEDFAVYYCMQHLEYPFTFGQGTKLEIK
notes: Humanized from CH-15; also called humanized antibody Hu-15-Z9
  binding result: binds

B18: Hu-15-Z4 (antibody, V domains shown)
VH: EVQLVESGGGLVQPGGSLRLSCAASGFTFNTNAMNWVRQAPGKGLEWVGRIRTKSNNYATYYAESVRDRFTISRDDSKNSLYLQMNSLKTEDTAMYYCVRGGYGIRGDYTMDYWGQGTLVTVSS
VL: EIVLTQSPGTLSLSPGERATLSCRSSKSLLHSNGNTYLYWYQQKPGQAPRLLIYRMSNLASGIPDRFSGSGSGTDFTLTISRLEPEDFAVYYCMQHLEYPFTFGQGTKLEIK
notes: Humanized from CH-15; also called humanized antibody Hu-15-Z4
  binding result: binds

B19: Hu-15-Z2 (antibody, V domains shown)
VH: EVQLVESGGGLVQPGGSLRLSCAASGFTFNTNAMNWVRQAPGKGLEWVGRIRTKSNNYATYYAESVRDRFTISRDDSKNSLYLQMNSLKTEDTAVYYCARGGYGIRGDYTMDYWGQGTLVTVSS
VL: EIVMTQSPGTLSLSPGERATLSCRSSKSLLHSNGNTYLYWFQQKPGQSPRLLIYRMSNLASGIPDRFSGSGSGTDFTLTISRLEPEDFAVYYCMQHLEYPFTFGQGTKLEIK
notes: Humanized from CH-15; also called humanized antibody Hu-15-Z2
  binding result: binds

B20: Hu-15-Z5 (antibody, V domains shown)
VH: EVQLVESGGGLVQPGGSLRLSCAASGFTFNTNAMNWVRQAPGKGLEWVGRIRTKSNNYATYYAESVRDRFTISRDDSKNSLYLQMNSLKTEDTAMYYCVRGGYGIRGDYTMDYWGQGTLVTVSS
VL: EIVMTQSPGTLSLSPGERATLSCRSSKSLLHSNGNTYLYWFQQKPGQSPRLLIYRMSNLASGIPDRFSGSGSGTDFTLTISRLEPEDFAVYYCMQHLEYPFTFGQGTKLEIK
notes: Humanized from CH-15; also called humanized antibody Hu-15-Z5
  binding result: binds

B21: Hu-15-Z1 (antibody, V domains shown)
VH: EVQLVESGGGLVQPGGSLRLSCAASGFTFNTNAMNWVRQAPGKGLEWVGRIRTKSNNYATYYAESVRDRFTISRDDSKNSLYLQMNSLKTEDTAVYYCARGGYGIRGDYTMDYWGQGTLVTVSS
VL: EIVLTQSPGTLSLSPGERATLSCRSSKSLLHSNGNTYLYWYQQKPGQAPRLLIYRMSNLASGIPDRFSGSGSGTDFTLTISRLEPEDFAVYYCMQHLEYPFTFGQGTKLEIK
notes: Humanized from CH-15; made by the aforementioned method (human IgG framework); also called humanized antibody Hu-15-Z1
  binding result: binds
